Source: publication PMC3211009, “A Novel Cold-Adapted Lipase from Sorangium cellulosum Strain So0157-2: Gene Cloning, Expression, and Enzymatic Characterization” (International Journal of Molecular Sciences, 2011)

How the values were obtained:
Experiment in all cases: purified protein
Type in all cases: biochemical, Sorangium cellulosum
Details in all cases: 50 mM Tris-HCl pH 8.0, 30 °C
purified protein [1] = substrate: CCCCCCCCCCCC(=O)Oc1ccc([N+](=O)[O-])cc1
purified protein [2] = substrate: CCCCCCCCCC(=O)Oc1ccc([N+](=O)[O-])cc1
purified protein [3] = substrate: CCCC(=O)Oc1ccc([N+](=O)[O-])cc1
purified protein [4] = substrate: CCCCCCCC(=O)Oc1ccc([N+](=O)[O-])cc1
purified protein [5] = substrate: CC(=O)Oc1ccc([N+](=O)[O-])cc1

B1: r-LipA (Sorangium cellulosum) (protein)
chain: MPADTFTFQADDGRELFVYRWLPDDGARGIFHIAHGMSEHAGRYARLAHALSAAGWAVYANDHRGHGRTARERGELGFFASQGGFQRVVRDLAALIAREQEAHPGLPVVLFGHSMGSSLVQEYLIERGGSIQGAVLSGSSGKPSPLVDAGRLVARAERRRLGERGKSQLLQSMSFDSFNKLFAPARTPFDWLSRDRAEVDGYIADPCCGFPATVSLWIDLLDAMVDIARPERQARIPKDLPVYVFSGSRDPVGGPLRSVTQMIEAYRAAGLRRVTPRIYPGGRHEMLNEINREEVVRDLLAWLDAEVKTEAAPARPARPSAGAAAG
notes: pET-22b(+) NdeI/HindIII, His-tag (C-terminal by vector and stop-less reverse primer), E. coli BL21(DE3), Ni-NTA; tryptic peptides GELGFFASQGGFQR, SVTQMIEAYR; GHSMG at 112-116, Ser114/Asp250/His284
Km (purified protein [1]): 1946 ± 59 µM | kcat (purified protein [1]): 1.21 ± 0.032 s⁻¹ | kcat/Km (purified protein [1]): 619 ± 2 M⁻¹ s⁻¹ | Km (purified protein [2]): 1664 ± 47 µM | kcat (purified protein [2]): 1.56 ± 0.036 s⁻¹ | kcat/Km (purified protein [2]): 940 ± 5 M⁻¹ s⁻¹ | Km (purified protein [3]): 366 ± 211 µM | kcat (purified protein [3]): 13.6 ± 0.735 s⁻¹ | kcat/Km (purified protein [3]): 37170 ± 128 M⁻¹ s⁻¹ | Km (purified protein [4]): 704 ± 26 µM | kcat (purified protein [4]): 3.29 ± 0.114 s⁻¹ | kcat/Km (purified protein [4]): 4677 ± 13 M⁻¹ s⁻¹ | Km (purified protein [5]): 174 ± 6 µM | kcat (purified protein [5]): 29.2 ± 0.977 s⁻¹ | kcat/Km (purified protein [5]): 168000 ± 2100 M⁻¹ s⁻¹
